T1: ComZ (residues 31 to 554), Thermus thermophilus HB27 (Thermus thermophilus HB27, UniProt Q8KPZ1 31-554)
T1 construct: Cloned into pET-22b (NcoI/XhoI); also called recombinant ComZ fragment; comZ-22b construct; source: E. coli T7 Express, purified (HisTrap HP, SEC); not shown: His6, C-terminal, kept
T1 sequence (looked up): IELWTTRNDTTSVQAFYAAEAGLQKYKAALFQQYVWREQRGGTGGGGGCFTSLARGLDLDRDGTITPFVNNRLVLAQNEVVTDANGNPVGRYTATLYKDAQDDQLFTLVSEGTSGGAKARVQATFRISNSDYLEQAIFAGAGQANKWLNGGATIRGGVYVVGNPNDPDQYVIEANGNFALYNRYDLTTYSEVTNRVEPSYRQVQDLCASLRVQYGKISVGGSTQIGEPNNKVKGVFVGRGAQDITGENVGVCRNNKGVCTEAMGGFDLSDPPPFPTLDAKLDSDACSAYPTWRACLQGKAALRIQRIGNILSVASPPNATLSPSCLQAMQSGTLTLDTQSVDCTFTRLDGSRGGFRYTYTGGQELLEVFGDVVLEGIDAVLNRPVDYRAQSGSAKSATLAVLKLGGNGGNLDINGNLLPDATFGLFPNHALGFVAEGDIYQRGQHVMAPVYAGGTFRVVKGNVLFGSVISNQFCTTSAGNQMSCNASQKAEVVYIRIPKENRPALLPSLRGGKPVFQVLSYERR

B1: PilA2 soluble domain (residues 33 to 193), Thermus thermophilus HB27 (domain or fragment, UniProt Q72JC3 33-193, looked up)
chain: RASAQARFATDAKAAAVQVLERRSAEVLKSEIVPALSPYKDAPLDPDNPSGNWRSFYFVDYYFSCPTRVAPSPKQRGGSVANLRPGLTCSGTETIFGIPVAWDIRGENGILGEGVVTVVVTATHPRGPKVTLGRRVTCYDVYPSPTQDQPAPCPPPGGGRP
notes: Synthetic gene (GeneArt), codon-optimised for E. coli, in pET-22b (BamHI/XhoI); also called recombinant PilA2; source: E. coli Lemo21(DE3), purified (StrepTrap HP, SEC); not shown: Strep-tag II, C-terminal, kept
B2: PilA3 soluble domain (residues 33 to 233), Thermus thermophilus HB27 (domain or fragment, UniProt Q72JC2 33-233, looked up)
chain: ELARNTQARSELQDRVRMVMQVVTADLQMAGARYWNSGNQNQAFSLPLPPLSGSNMGPKDTLTLYYVTSLRDLASACRRVDYGFEGDTLRRSDVNATPSSGSDCTTPPPNSQPLAEGMLALDIQYQCSDGSRKDTPDCGTDAYPRSAKVTVAGYSLTSVTNPGPASLTTVTGKTLACPQGRACYALTQEVLMPNLKPLPTP
notes: Synthetic gene (GeneArt), codon-optimised for E. coli, in pET-22b (BamHI/XhoI); source: E. coli Lemo21(DE3), purified (StrepTrap HP, SEC); not shown: Strep-tag II, C-terminal, kept

Experiments:
[1] = target: T1, ComZ (residues 31 to 554), Thermus …; assay: ITC; MicroCal PEAQ-ITC; 20 aliquots of 2 μl PilA2 (314 μM) titrated into 300 μl ComZ (33 μM), 25°C; fitted assuming a single binding site; conditions: both partners purified
[2] = target: the molecule itself; assay: SEC; HiLoad 16/600 Superdex 200 PG, 1 ml/min, 25 mM Tris-HCl pH 8.0, 200 mM NaCl, 5% glycerol; proteins incubated together at 4°C for 30 min before the run; each protein also run alone; peaks checked by SDS-PAGE

Binder | Kd [1] | dH [1] | stoichiometry N [1] | binding result [2]
B1 | 690 nM | 2.3 kcal/mol | 1.1 | –
B2 | – | – | – | binds
